This note sets out measurements from patent publication US20090004675A1, “Method of Identifying Compounds for Bacterial Growth Modulation” (priority 2004, published 2009).

Assay [1] has as its target Streptococcus pyogenes β clamp. The assay is described as follows: fluorescence anisotropy; labeled peptide. Conditions: chains peptide; modification not given.
Assay [2] addresses Escherichia coli β clamp (beta subunit of DNA polymerase III holoenzyme), P0A988. The assay is described as follows: fluorescence (fluorophore-labeled β titrated with peptide); ±0.4; labeled β. Particulars: chains peptide; modification not given.

By Kd is commonly meant the free concentration of one partner at which half of the binding sites on the other are occupied at equilibrium, for simple one-to-one binding. The molecule DELGSLPNLPDKAQLSIFDM [C-terminal peptide corresponding to Staphylococcus aureus Pol C] registered a Kd in assay [1] of 14 µM. Molecule RLLNDLRGLIGSEQVELEFD [20 mer peptide corresponding to the C-terminal 20 residues of E. coli Pol III α subunit] displayed a Kd in assay [2] of 2.7 µM. Regarding DEMGILGNMPEDNQLSLFDDFF [Peptide corresponding to C-terminal residues of Streptococcus pyogenes Pol C], the Kd in assay [1] was 2.2 µM.
